Measurements: patent US20220213181A1 (Novartis, published 2022)

Legend:
[1] = molecular target: T1, Human ANGPTL4(26-406)-FLAG-His6-Avi (human, UniProt Q9BY76 24-406, biotin on the C-terminal Avi tag (BirA) where the protein is immobilised); test: Octet (ForteBio) kinetics; average KD of the runs
T1 construct: the text calls it 20 amino acids), then QP, ANGPTL4 26-406 and FLAG-His6-Avi; the signal peptide is left out here; also called full length human ANGPTL4; hANGPTL4
T1 sequence: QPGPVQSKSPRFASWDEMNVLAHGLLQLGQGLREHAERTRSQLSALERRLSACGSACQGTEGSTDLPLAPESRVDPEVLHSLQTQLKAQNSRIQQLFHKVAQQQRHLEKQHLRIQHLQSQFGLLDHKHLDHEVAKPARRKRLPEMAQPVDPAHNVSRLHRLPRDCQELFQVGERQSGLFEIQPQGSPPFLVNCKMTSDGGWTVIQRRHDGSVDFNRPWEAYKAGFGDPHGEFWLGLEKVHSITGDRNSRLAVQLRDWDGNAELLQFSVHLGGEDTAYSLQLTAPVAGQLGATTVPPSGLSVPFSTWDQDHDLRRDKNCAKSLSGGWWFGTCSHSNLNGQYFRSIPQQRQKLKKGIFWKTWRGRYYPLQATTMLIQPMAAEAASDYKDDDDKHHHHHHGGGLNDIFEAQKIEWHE

[2] = molecular target: T2, Human ANGPTL4(26-161)-FLAG-His6-Avi (human, biotin on the C-terminal Avi tag (BirA) where the protein is immobilised); test: Octet (ForteBio) kinetics; average KD of the runs
T2 construct: also called human ANGPTL4 N-terminal coiled coil domain; hANGPTL4-CCD
T2 chain: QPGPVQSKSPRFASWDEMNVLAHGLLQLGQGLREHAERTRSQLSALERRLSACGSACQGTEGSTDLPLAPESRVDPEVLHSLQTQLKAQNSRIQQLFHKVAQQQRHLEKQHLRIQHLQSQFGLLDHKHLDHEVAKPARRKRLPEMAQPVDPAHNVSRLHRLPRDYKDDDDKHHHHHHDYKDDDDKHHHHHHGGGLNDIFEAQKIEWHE

[3] = molecular target: T3, Cynomolgus monkey ANGPTL4(26-406)-FLAG-His6-Avi (cynomolgus monkey, biotin on the C-terminal Avi tag (BirA) where the protein is immobilised); test: Octet (ForteBio) kinetics; average KD of the runs
T3 construct: also called Cyno ANGPTL4 (26-406)
T3 chain: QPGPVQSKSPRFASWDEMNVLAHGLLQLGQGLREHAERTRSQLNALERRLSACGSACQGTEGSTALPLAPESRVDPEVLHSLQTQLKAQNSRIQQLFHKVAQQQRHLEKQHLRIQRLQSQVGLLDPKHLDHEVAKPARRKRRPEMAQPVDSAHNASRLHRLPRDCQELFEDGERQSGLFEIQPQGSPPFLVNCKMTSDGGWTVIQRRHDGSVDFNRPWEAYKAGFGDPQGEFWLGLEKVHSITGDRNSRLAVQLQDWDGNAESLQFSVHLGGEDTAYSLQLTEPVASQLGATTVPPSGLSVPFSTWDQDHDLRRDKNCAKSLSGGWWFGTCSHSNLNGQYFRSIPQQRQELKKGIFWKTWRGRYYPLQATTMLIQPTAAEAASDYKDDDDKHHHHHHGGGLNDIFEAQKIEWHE

[4] = molecular target: T4, Cynomolgus monkey ANGPTL4(26-161)-FLAG-His6-Avi (cynomolgus monkey, biotin on the C-terminal Avi tag (BirA) where the protein is immobilised); test: Octet (ForteBio) kinetics; average KD of the runs
T4 construct: also called Cyno ANGPTL4 (26-161)
T4 chain: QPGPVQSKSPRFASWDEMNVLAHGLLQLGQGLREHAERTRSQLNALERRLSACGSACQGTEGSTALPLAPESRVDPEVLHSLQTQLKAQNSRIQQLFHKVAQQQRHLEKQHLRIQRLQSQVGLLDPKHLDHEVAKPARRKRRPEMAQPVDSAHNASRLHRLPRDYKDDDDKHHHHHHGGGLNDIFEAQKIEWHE

[5] = molecular target: T5, Mouse ANGPTL4(26-410)-FLAG-His6-Avi (mouse, UniProt Q9Z1P8 24-410, biotin on the C-terminal Avi tag (BirA) where the protein is immobilised); test: Octet (ForteBio) kinetics, biotinylated antigen on streptavidin sensor, IgG in solution
T5 sequence: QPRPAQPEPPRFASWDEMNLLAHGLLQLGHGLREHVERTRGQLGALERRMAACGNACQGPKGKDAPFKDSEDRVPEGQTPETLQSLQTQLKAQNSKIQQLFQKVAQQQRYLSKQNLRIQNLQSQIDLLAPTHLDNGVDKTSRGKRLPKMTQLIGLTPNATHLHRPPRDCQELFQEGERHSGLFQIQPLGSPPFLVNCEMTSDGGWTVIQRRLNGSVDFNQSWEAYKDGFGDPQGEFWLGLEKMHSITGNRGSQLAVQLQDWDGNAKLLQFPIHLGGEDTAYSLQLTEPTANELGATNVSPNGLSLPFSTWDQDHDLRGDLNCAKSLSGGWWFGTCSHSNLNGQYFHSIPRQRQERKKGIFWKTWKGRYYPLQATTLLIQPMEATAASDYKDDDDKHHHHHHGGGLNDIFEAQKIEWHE

[6] = molecular target: T5, Mouse ANGPTL4(26-410)-FLAG-His6-Avi; test: Octet (ForteBio) kinetics; average KD of the runs; Octet kinetics; average KD of the two mouse runs
[7] = molecular target: T6, Human ANGPTL3(17-460)-FLAG-His-Avi (human, UniProt Q9Y5C1 17-460, biotin on the C-terminal Avi tag (BirA)); test: Octet (ForteBio) kinetics, biotinylated antigen on streptavidin sensor, IgG in solution; no binding at 25 nM
T6 construct: also called full length human ANGPTL3; hANGPTL3
T6 sequence: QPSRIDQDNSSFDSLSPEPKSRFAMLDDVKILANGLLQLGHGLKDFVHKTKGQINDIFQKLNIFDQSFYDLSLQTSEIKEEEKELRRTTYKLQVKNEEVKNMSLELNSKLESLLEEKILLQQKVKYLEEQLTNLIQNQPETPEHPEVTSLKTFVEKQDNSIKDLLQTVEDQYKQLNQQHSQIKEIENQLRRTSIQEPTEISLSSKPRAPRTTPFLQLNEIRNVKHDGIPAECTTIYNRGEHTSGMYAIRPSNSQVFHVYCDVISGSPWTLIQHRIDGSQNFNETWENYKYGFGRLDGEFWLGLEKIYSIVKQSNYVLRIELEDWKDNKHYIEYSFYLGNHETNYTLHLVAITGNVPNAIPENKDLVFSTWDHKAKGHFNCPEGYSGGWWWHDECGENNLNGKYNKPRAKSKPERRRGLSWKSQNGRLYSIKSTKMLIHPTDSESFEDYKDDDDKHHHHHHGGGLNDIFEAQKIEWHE

Kd [1]: 0.013 nM
Kd [2]: 0.038 nM
Kd [3]: 0.015 nM
Kd [4]: 0.056 nM
Kd [5]: 4.15 nM
Kd [6]: 6.2 nM
Kd [7]: > 6 nM
B1: NEG276-LALA (antibody, human IgG1, kappa, L234A L235A)
heavy: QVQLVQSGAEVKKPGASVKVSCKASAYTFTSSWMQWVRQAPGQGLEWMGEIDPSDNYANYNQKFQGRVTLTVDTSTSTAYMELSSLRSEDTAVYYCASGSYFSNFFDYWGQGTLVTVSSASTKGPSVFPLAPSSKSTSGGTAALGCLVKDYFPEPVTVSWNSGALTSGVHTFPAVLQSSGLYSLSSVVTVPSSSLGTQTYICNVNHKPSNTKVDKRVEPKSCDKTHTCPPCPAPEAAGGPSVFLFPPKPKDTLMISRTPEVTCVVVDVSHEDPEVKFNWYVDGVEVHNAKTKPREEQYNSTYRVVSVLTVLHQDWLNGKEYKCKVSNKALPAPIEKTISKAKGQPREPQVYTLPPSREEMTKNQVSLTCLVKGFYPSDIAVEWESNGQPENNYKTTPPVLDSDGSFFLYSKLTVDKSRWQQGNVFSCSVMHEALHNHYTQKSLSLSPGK
light: EIVMTQSPATLSVSPGERATLSCKASQDIGSNLNWLQQKPGQAPRRLIYAVSNRGPGIPARFSGSRSGSEYTLTISSLQSEDFAVYYCLQYASSPWTFGQGTKVEIKRTVAAPSVFIFPPSDEQLKSGTASVVCLLNNFYPREAKVQWKVDNALQSGNSQESVTEQDSKDSTYSLSSTLTLSKADYEKHKVYACEVTHQGLSSPVTKSFNRGEC
